Assay results: patent US20140335077A1, “Compositions and Methods for the Treatment of Cancer Using IGF-IR Antagonists and MAPK/ERK Inhibitors” (priority 2013, published 2014)

Molecular target: T1, IGF-1R (Homo sapiens, UniProt P08069)
T1 construct: all the ES cell lines tested expressed IGF-1R; endogenous in cells; host or cells: Ewing's sarcoma cell lines SKES, RDES, CADO, A673, SKNMC
Test: IGF-1R downregulation in ES cell lines (western blot)
Assay type: cell-based
Procedure: FIG. 2A-FIG. 2D. […] (A) Cells incubated in serum free medium for 12 h were treated with 0, 0.1 or 1 μg/ml CP for 24 h. Protein lysates were analyzed by WB for IGF-1R and GAPDH as a loading control. […] Protein lysates were analyzed by WB for IGF-1R and GAPDH as a loading control. Signals were quantified by densitometry, normalized to GAPDH and expressed as a percentage of the IGF-1R at 0 h. Data correspond to the mean±SEM from three independent experiments. […] IGF-1R was immunoprecipitated from lysates and analyzed by WB (IB) for ubiquitination (Ub) and IGF-1R as a loading control. Molecular weight markers in KDa are indicated to the left of the panels. (D) β-Arrestin1 (β-arr1) was immunoprecipitated from cell lysates prepared as for (C). Immunoprecipitated proteins were analyzed by WB for IGF-1R. The whole lysates were analyzed by WB for GAPDH as a loading control.
Appropriate primary antibody was incubated overnight at 4° C.
Given that β-arrestin1 (β-arr1) is a key protein involved in IGF-1R ubiquitination, we also investigated ligand induced IGF-1R/β-arr1 association.

B1: CP-751,871: anti-IGF-1R antibody figitumumab (Pfizer), IGF-1R antagonist (antibody, chains of the INN, looked up)
heavy: EVQLLESGGGLVQPGGSLRLSCTASGFTFSSYAMNWVRQAPGKGLEWVSAISGSGGTTFYADSVKGRFTISRDNSRTTLYLQMNSLRAEDTAVYYCAKDLGWSDSYYYYYGMDVWGQGTTVTVSSASTKGPSVFPLAPCSRSTSESTAALGCLVKDYFPEPVTVSWNSGALTSGVHTFPAVLQSSGLYSLSSVVTVPSSNFGTQTYTCNVDHKPSNTKVDKTVERKCCVECPPCPAPPVAGPSVFLFPPKPKDTLMISRTPEVTCVVVDVSHEDPEVQFNWYVDGVEVHNAKTKPREEQFNSTFRVVSVLTVVHQDWLNGKEYKCKVSNKGLPAPIEKTISKTKGQPREPQVYTLPPSREEMTKNQVSLTCLVKGFYPSDIAVEWESNGQPENNYKTTPPMLDSDGSFFLYSKLTVDKSRWQQGNVFSCSVMHEALHNHYTQKSLSLSPG
light: DIQMTQFPSSLSASVGDRVTITCRASQGIRNDLGWYQQKPGKAPKRLIYAASRLHRGVPSRFSGSGSGTEFTLTISSLQPEDFATYYCLQHNSYPCSFGQGTKLEIKRTVAAPSVFIFPPSDEQLKSGTASVVCLLNNFYPREAKVQWKVDNALQSGNSQESVTEQDSKDSTYSLSSTLTLSKADYEKHKVYACEVTHQGLSSPVTKSFNRGEC
For B1, which IGF-1R downregulation (100 ng/ml or 1 μg/ml, 24 h, serum starved, all ES cell lines) is on record?
Its IGF-1R downregulation is “downregulate IGF-1R in a dose dependent manner”.

And the “Rate of receptor degradation” value (A673 cells, time-response)?
The value was “very fast”.

And the “Receptor degradation compared with IGF-1 (time-response)” value (SKES, RDES, CADO and SKNMC, molar concentration approximately 10 fold less than IGF-1)?
Its value is “more efficient at inducing receptor degradation”.
